Laboratory results published in paper PMC10635833, “A MEC-2/stomatin condensate liquid-to-solid phase transition controls neuronal mechanotransduction during touch sensing” (Nature Cell Biology, 2023).

Target: the molecule itself
Experiment: NMR signal intensities and chemical shifts (1H-15N correlation spectra) of the mutant against the wild type; per-residue chemical shift difference and intensity ratio between MEC-2 C-terminal domain WT and R385H, no partner added

B1: MEC-2 C-terminal domain R385H mutant (domain or fragment, C. elegans, UniProt Q27433 371-481, looked up)
chain: PPKVEEPPSLPKKIHSCCLYKYPDWVQGMVGSEGGGGHGHSHGGGGGGLGSSQGAFHPSQAGSGPSTTTTSGRPLLRSMREAQFHSAAPPISAPNQSQTSVSQLDPALLIR
notes: MEC-2 (stomatin), C. elegans, C-terminal domain, residues 371-481 as for the wild-type construct, with R385H (allele u26); also called MEC-2 (R385H); u26 allele
binding result: binds
